Patent publication US20220227882A1 (TRUSTEES OF TUFTS COLLEGE, published 2022)

Legend:
[1] = molecular target: Full-length human ADAM8 on cells (HEK293-ADAM8 stable or transfected cells; also endogenous ADAM8 of breast cell lines and PDX tumors) (human) (UniProt P78325)
[2] = molecular target: Recombinant human ADAM8 (rHuADAM8) ectodomain protein (aa 17-497), ACRO Biosystems AD8-H5223 (human) (UniProt P78325); experiment: adhesion of α9β1 integrin CHO cells to coated rHuADAM8, antibody 20 µg/ml, vs isotype control IgG; mean ± S.D., n=3
[3] = molecular target: Full-length human ADAM8 on cells (HEK293-ADAM8 stable or transfected cells; also endogenous ADAM8 of breast cell lines and PDX tumors) (human) (UniProt P78325); experiment: FACS, HEK293-ADAM8 cells, column 0.1 µg/ml, negative control
[4] = molecular target: Full-length human ADAM8 on cells (HEK293-ADAM8 stable or transfected cells; also endogenous ADAM8 of breast cell lines and PDX tumors) (human) (UniProt P78325); experiment: FACS, HEK293-ADAM8 cells, column 10 µg/ml, negative control
[5] = molecular target: Full-length human ADAM8 on cells (HEK293-ADAM8 stable or transfected cells; also endogenous ADAM8 of breast cell lines and PDX tumors) (human) (UniProt P78325); experiment: FACS, HEK293-ADAM8 cells, column 1 µg/ml, negative control
[6] = molecular target: T1, Recombinant human ADAM8 (rHuADAM8) ectodomain protein (aa 17-497), ACRO Biosystems AD8-H5223 (human, UniProt P78325 17-497); experiment: ELISA on coated rHuADAM8, antibody 0 to 2.5 nM
T1 construct: Bought protein made in HEK293 cells; The protein clips off its own prodomain (aa 17-191); also called rhADAM8; immunogen
T1 sequence: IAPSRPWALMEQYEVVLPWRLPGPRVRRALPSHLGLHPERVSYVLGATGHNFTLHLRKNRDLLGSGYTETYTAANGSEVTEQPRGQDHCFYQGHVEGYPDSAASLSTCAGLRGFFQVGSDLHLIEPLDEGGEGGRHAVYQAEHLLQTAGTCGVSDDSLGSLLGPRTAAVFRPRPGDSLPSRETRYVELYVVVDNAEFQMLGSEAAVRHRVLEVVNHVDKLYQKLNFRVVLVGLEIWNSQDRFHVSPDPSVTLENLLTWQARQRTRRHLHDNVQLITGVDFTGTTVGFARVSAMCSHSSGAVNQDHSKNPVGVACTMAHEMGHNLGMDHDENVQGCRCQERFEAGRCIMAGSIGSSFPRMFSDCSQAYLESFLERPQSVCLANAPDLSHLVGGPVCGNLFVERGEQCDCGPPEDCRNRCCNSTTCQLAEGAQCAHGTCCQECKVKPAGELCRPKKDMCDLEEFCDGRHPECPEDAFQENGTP

[7] = molecular target: Quenched fluorescent CD23 peptide (Biozyme, PEPDAB013m001)

**Q.** For “MAB1031 anti-ADAM8 antibody (R&D Systems)”, which % inhibition of CD23 cleavage (MP activity), HEK293 cells co-expressing CD23 and ADAM8, antibody 20 µg/ml [1] is on record?
**A.** The % inhibition of CD23 cleavage (MP activity), HEK293 cells co-expressing CD23 and ADAM8, antibody 20 µg/ml was 65.8 % inhibition.

**Q.** And the % inhibition of transendothelial migration of MDA-MB-231 cells through HUVEC, antibody 20 µg/ml [1]?
**A.** The % inhibition of transendothelial migration of MDA-MB-231 cells through HUVEC, antibody 20 µg/ml was 42.4 % inhibition.

**Q.** What about the % inhibition of α9β1 integrin binding to ADAM8 [2] of the same molecule?
**A.** Its % inhibition of α9β1 integrin binding to ADAM8 is 63.4 % inhibition.

**Q.** How did the MFI [3] turn out when mIgG (antibody) was run?
**A.** Its MFI is 3.3 MFI.

**Q.** What about the MFI [4] of the same molecule?
**A.** The MFI was 4 MFI.

**Q.** And the MFI [5]?
**A.** The MFI was 3.2 MFI.

B1: chADP13-IgG1 (antibody, V domains shown)
VH: EVQLQQSGPEMVKPGTSVKISCKASGYTFTDYYINWVKQSHGKSLEWIGDISPNIGGATYNPKFKGKAILTVDKSARTAYMELRSLTSEDSAVYCCTRGGSSYPYFYAMDYWGQGTSVTVSS
VL: DIVMSQSPSSLAVSVGEKVTMSCKSSQSLLYSSNQKKYLAWYQQKPGQSPKLLIYWASTRESGVPDRFTGSGSGTDFTLTISSVKAEDLAVYYCQQFYSYPYTFGGGTKLEIKR
notes: Mouse ADP13 VL and VH joined to germline human IgG1 CL and CH; made in CHO cells; also called chimeric ADP13
**Q.** B1 was tested. Which Kd [6] did it give?
**A.** The Kd was 0.0795 nM.

B2: Recombinant human ADAM8 (rHuADAM8) ectodomain protein (aa 17-497), ACRO Biosystems AD8-H5223 (protein)
chain: T1 sequence
**Q.** Which “fluorescence released from a quenched CD23 peptide over 24 hr” value [7] does the source give for B2 here?
**A.** The value was “An increase in fluorescence was seen over time in samples with rHuADAM8, which was inhibited in the presence of the chelating agent EDTA”.

B3: chADP2-IgG1 (antibody, V domains shown)
VH: EVKLVESGGGLVQPGGSLSLSCAASGFSFPDYYMSWVRQPPGKALEWLGFIRDSANGYTTEYIASVKGRFTFSRDNSQSILYLQMNALRAEDSATYYCARYSRYYGMDYWGQGTSVTVSS
VL: SIVMTQTPKILLVSAGDRVTITCKASQTVNYDVAWYQQKPGQSPKPVIYFASNRYTGVPDRFTGSGFGTDFTFTISTVQAEDLAVYFCQQDYSAPWTFGGGTKLEIKR
notes: Mouse ADP2 VL and VH joined to germline human IgG1 CL and CH; made in CHO cells; also called chimeric ADP2
**Q.** B3 was tested. Which Kd [6] did it give?
**A.** The Kd was 0.0366 nM.
